Measured values published in patent US20130039916A1.
Numbering of substitutions follows the chain as printed. Blank lines part the entries; values can stand above or below the binder they belong to.

Target: "Bac-wt" human IL-23 (identical to elastikine in sequence, expressed in SF9 cells) (human) (UniProt P29460)
Assay: BIAcore SPR, antibody immobilised on CM5 chip, IL-23 in solution

Kd: 10 nM
B1: humanized anti-human IL-23p19 antibody 7G10 (antibody, human IgG1, kappa, V domains shown)
VH: QVQLVQSGAEVKKPGASVKVSCKASGYTFTSNVMHWVRQAPGQGLEWMGYINPYNDGTKYNEKFKGRVTMTTDTSTSTAYMELRSLRSDDTAVYYCARNWDVAYWGQGTLVTVSS
VL: DIQMTQSPSSLSASVGDRVTITCRASQSISDYLHWYQQKPGKAPKLLIYYASQSISGVPSRFSGSGSGTDFTLTISSLQPEDFATYYCQNGHSFPFTFGQGTKVEIKR

Kd: 5.1 nM
B2: humanized anti-human IL-23p19 antibody 6H12 (antibody, human IgG1, kappa, V domains shown)
VH: B1 VH with T30N, S31R, N32Y, V33L, M34I, Y54N, D56A, K59N, V102Q
VL: B1 VL with A51T
